Laboratory results from patent US20250009808A1.

The substances below were run against rat RT1A class I histocompatibility antigen (rat (Rattus norvegicus)) (UniProt P16391) (assay: heterogeneous rat liver cells incubated with antibody; cell count of retained versus flow-through fractions).
UniProt P16391, sequence (P16391 25-371 limits assumed): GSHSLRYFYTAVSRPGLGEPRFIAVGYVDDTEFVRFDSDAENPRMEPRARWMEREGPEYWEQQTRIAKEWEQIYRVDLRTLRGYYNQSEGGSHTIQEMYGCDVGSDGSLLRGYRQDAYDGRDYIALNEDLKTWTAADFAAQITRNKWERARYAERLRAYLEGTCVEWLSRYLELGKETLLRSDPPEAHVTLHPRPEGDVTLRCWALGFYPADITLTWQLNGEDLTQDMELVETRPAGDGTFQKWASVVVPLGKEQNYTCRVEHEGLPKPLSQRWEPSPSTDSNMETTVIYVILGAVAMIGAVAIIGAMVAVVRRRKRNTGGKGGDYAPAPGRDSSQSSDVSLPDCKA

Going from “anti-RT1A monoclonal antibody IgG1 MRC clone OX-18” to “anti-RT1A monoclonal antibody IgG1 clone F16-4-4”, the percent of total cells in the population bound rises from 60% to > 60%.

For “anti-RT1A monoclonal antibody IgG2a MRC clone OX-27”, the percent of total cells in the population bound was < 10%.
